According to patent publication US20050009149A1:
“And” between values parts separate entries of the source, which are not always exact repeats. Equal values may be shown once.

Assays:
[1] = target: zTNF4 (UniProt Q9Y275); assay: cell-based or functional assay
[2] = target: human TACI on Jurkat TACI KZ142 Luciferase cells (human) (UniProt O14836); assay: cell-based or functional assay
UniProt O14836, sequence (O14836 whole entry): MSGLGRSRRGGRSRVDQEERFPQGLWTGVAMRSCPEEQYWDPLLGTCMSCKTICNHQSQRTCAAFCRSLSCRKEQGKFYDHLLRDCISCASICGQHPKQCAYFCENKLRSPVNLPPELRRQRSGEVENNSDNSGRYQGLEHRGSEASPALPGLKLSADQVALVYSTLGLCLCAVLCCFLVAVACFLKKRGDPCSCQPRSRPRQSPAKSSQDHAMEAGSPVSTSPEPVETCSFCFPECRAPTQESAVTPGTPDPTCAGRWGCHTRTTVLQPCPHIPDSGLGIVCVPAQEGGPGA

Substance: TACI-Fc fusion protein (from UniProt O14836 1-165)
- EC50, inhibition of zTNF4-stimulated human B-cell proliferation (3H-thymidine incorporation) [1]: 1.1 nM

Substance: TACI-NC1 (fusion of an extracellular domain of TACI and the NC1 domain of human collagen X, with Glu-Glu tag)
- EC50, inhibition of zTNF4-stimulated human B-cell proliferation (3H-thymidine incorporation) [1]: 0.057 nM
- fold effectiveness against TACI-Fc5, inhibition of zTNF4-induced B-cell proliferation [1]: 19 times
- fold efficiency at inhibiting zTNF4-stimulated proliferation of human B-cells [1]: 10 fold

Substance: zTNF4 (from UniProt Q9Y275 134-285) (ligand)
- luciferase responsiveness of Jurkat TACI KZ142 Luciferase cells [2]: 18 fold and 10 fold
